We go through one molecule from doi:10.1101/367656.

This series concerns the target T1, RIG-IΔN (2CARD deletion);RIPLET (Homo sapiens;Homo sapiens, UniProt O95786;Q8IUD6 201-925;1-432, |).
T1 sequence 1: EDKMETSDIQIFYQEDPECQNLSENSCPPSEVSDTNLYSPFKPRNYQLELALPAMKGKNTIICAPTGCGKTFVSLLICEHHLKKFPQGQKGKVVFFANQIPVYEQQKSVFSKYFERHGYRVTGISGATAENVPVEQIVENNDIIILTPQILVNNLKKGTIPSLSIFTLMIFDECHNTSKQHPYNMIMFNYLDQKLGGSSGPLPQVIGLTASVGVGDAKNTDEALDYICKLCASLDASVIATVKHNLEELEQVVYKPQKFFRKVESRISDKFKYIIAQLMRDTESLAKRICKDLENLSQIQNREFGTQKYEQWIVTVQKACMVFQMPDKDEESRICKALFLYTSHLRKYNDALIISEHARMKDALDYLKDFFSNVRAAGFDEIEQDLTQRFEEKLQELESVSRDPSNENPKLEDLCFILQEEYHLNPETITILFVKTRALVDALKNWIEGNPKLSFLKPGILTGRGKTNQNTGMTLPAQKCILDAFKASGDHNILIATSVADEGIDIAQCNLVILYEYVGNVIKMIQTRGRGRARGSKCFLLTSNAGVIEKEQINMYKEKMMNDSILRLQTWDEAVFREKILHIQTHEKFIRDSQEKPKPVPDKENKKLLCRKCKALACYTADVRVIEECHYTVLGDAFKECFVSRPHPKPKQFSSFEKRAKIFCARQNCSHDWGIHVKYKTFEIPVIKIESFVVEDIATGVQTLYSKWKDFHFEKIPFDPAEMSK
T1 sequence 2: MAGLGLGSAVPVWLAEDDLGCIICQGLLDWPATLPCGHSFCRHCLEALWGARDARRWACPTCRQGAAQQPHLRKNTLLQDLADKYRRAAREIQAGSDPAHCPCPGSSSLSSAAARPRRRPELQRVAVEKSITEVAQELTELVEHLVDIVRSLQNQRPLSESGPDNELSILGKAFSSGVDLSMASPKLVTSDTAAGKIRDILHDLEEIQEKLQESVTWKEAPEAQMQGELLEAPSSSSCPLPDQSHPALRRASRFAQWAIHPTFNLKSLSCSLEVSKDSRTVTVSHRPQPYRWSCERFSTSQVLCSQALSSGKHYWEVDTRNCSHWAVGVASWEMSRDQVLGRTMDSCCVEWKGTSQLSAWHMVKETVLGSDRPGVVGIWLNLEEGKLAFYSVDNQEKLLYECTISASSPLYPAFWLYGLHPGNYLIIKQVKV
As to the kind of experiment: EMSA.

B1: 21 bp dsRNA (dsRNA)
RNA 1: GAGUCACGACGUUGUAAAAAA
RNA 2: UUUUUUACAACGUCGUGACUC
modifications: 5'ppp
Take B1: the binding result is recorded as “binds”.
